From patent US20130005646A1 (Novo Nordisk, published 2013)
Starred links: 1 amine or outer side, 2 acyl side, 3 side chain; linkers in the order of their positions; H or OH if unused. Positions of bridges follow the written chain, without caps; N, C: chain ends. Groups on a side chain read outwards from the residue. No end group written: not given here. *: point of attachment. C20 diacid = O=C(O)CCCCCCCCCCCCCCCCCCC(=O)*; C18 diacid = O=C(O)CCCCCCCCCCCCCCCCC(=O)*; γGlu = O=C(O)[C@H](CCC(=O)[*:2])N[*:1]; AEEA = NCCOCCOCC(=O)O

T1: human amylin 3(a) receptor (human calcitonin receptor + RAMP-3) (human, UniProt P30988 25-474; O60896 24-148)
T1 sequence (looked up) 1: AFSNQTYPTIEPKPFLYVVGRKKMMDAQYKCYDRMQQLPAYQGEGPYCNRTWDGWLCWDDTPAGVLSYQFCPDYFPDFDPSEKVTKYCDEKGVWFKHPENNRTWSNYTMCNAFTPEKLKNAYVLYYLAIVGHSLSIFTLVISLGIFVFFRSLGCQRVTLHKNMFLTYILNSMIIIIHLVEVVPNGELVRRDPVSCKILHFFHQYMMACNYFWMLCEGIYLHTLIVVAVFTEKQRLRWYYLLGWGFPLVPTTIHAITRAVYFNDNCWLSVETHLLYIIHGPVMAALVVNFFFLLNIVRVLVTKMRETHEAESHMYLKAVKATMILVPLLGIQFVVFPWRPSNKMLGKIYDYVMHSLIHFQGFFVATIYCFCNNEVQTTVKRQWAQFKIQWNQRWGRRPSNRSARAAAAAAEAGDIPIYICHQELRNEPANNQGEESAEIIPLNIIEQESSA
T1 sequence (looked up) 2: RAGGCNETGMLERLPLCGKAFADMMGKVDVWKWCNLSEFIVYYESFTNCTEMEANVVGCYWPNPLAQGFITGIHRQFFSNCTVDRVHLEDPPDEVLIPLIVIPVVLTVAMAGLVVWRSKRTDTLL

T2: human calcitonin (a) receptor (human, UniProt P30988 25-474)
T2 sequence (looked up): T1 sequence (looked up) 1

B1: N-alpha-[2-(2-{2-[2-(2-{2-[(S)-4-Carboxy-4-(17-carboxyheptadecanoylamino)butyrylamino]ethoxy}ethoxy)acetylamino]ethoxy}ethoxy)acetyl]-[Glu1,Glu14,His17,Pro37]-p … (peptide)
peptide: {C18 diacid-γGlu-AEEA-AEEA}-ECNTATCATQRLAEFLHHSSNNFGPILPPTNVGSNTP-NH2
modifications: disulfide 2-7
SMILES: CC[C@H](C)[C@H](NC(=O)[C@@H]1CCCN1C(=O)CNC(=O)[C@H](Cc1ccccc1)NC(=O)[C@H](CC(N)=O)NC(=O)[C@H](CC(N)=O)NC(=O)[C@H](CO)NC(=O)[C@H](CO)NC(=O)[C@H](Cc1c[nH]cn1)NC(=O)[C@H](Cc1c[nH]cn1)NC(=O)[C@H](CC(C)C)NC(=O)[C@H](Cc1ccccc1)NC(=O)[C@H](CCC(=O)O)NC(=O)[C@H](C)NC(=O)[C@H](CC(C)C)NC(=O)[C@H](CCCNC(=N)N)NC(=O)[C@H](CCC(N)=O)NC(=O)[C@@H](NC(=O)[C@H](C)NC(=O)[C@@H]1CSSC[C@H](NC(=O)[C@H](CCC(=O)O)NC(=O)COCCOCCNC(=O)COCCOCCNC(=O)CC[C@H](NC(=O)CCCCCCCCCCCCCCCCC(=O)O)C(=O)O)C(=O)N[C@@H](CC(N)=O)C(=O)N[C@@H]([C@@H](C)O)C(=O)N[C@@H](C)C(=O)N[C@@H]([C@@H](C)O)C(=O)N1)[C@@H](C)O)C(=O)N[C@@H](CC(C)C)C(=O)N1CCC[C@H]1C(=O)N1CCC[C@H]1C(=O)N[C@H](C(=O)N[C@@H](CC(N)=O)C(=O)N[C@H](C(=O)NCC(=O)N[C@@H](CO)C(=O)N[C@@H](CC(N)=O)C(=O)N[C@H](C(=O)N1CCC[C@H]1C(N)=O)[C@@H](C)O)C(C)C)[C@@H](C)O
B2: N-alpha-[(S)-4-Carboxy-4-(19-carboxynonadecanoylamino)butyryl]-[Glu14,His17,Arg18,His35]-pramlintide (peptide)
peptide: {C20 diacid-γGlu}-KCNTATCATQRLAEFLHRSSNNFGPILPPTNVGSHTY-NH2
modifications: disulfide 2-7
SMILES: CC[C@H](C)[C@H](NC(=O)[C@@H]1CCCN1C(=O)CNC(=O)[C@H](Cc1ccccc1)NC(=O)[C@H](CC(N)=O)NC(=O)[C@H](CC(N)=O)NC(=O)[C@H](CO)NC(=O)[C@H](CO)NC(=O)[C@H](CCCNC(=N)N)NC(=O)[C@H](Cc1c[nH]cn1)NC(=O)[C@H](CC(C)C)NC(=O)[C@H](Cc1ccccc1)NC(=O)[C@H](CCC(=O)O)NC(=O)[C@H](C)NC(=O)[C@H](CC(C)C)NC(=O)[C@H](CCCNC(=N)N)NC(=O)[C@H](CCC(N)=O)NC(=O)[C@@H](NC(=O)[C@H](C)NC(=O)[C@@H]1CSSC[C@H](NC(=O)[C@H](CCCCN)NC(=O)CC[C@H](NC(=O)CCCCCCCCCCCCCCCCCCC(=O)O)C(=O)O)C(=O)N[C@@H](CC(N)=O)C(=O)N[C@@H]([C@@H](C)O)C(=O)N[C@@H](C)C(=O)N[C@@H]([C@@H](C)O)C(=O)N1)[C@@H](C)O)C(=O)N[C@@H](CC(C)C)C(=O)N1CCC[C@H]1C(=O)N1CCC[C@H]1C(=O)N[C@H](C(=O)N[C@@H](CC(N)=O)C(=O)N[C@H](C(=O)NCC(=O)N[C@@H](CO)C(=O)N[C@@H](Cc1c[nH]cn1)C(=O)N[C@H](C(=O)N[C@@H](Cc1ccc(O)cc1)C(N)=O)[C@@H](C)O)C(C)C)[C@@H](C)O
B3: N-epsilon17-[2-(2-{2-[2-(2-{2-[(S)-4-Carboxy-4-(17-carboxyheptadecanoylamino)butyrylamino]ethoxy}ethoxy)acetylamino]ethoxy}ethoxy)acetyl]-[Glu14,Lys17]-pramlint … (peptide)
peptide: KCNTATCATQRLAEFLK([AEEA-AEEA-γGlu-C18 diacid])HSSNNFGPILPPTNVGSNTY-NH2
modifications: disulfide 2-7; N-terminus assumed
SMILES: CC[C@H](C)[C@H](NC(=O)[C@@H]1CCCN1C(=O)CNC(=O)[C@H](Cc1ccccc1)NC(=O)[C@H](CC(N)=O)NC(=O)[C@H](CC(N)=O)NC(=O)[C@H](CO)NC(=O)[C@H](CO)NC(=O)[C@H](Cc1c[nH]cn1)NC(=O)[C@H](CCCCNC(=O)COCCOCCNC(=O)COCCOCCNC(=O)CC[C@H](NC(=O)CCCCCCCCCCCCCCCCC(=O)O)C(=O)O)NC(=O)[C@H](CC(C)C)NC(=O)[C@H](Cc1ccccc1)NC(=O)[C@H](CCC(=O)O)NC(=O)[C@H](C)NC(=O)[C@H](CC(C)C)NC(=O)[C@H](CCCNC(=N)N)NC(=O)[C@H](CCC(N)=O)NC(=O)[C@@H](NC(=O)[C@H](C)NC(=O)[C@@H]1CSSC[C@H](NC(=O)[C@@H](N)CCCCN)C(=O)N[C@@H](CC(N)=O)C(=O)N[C@@H]([C@@H](C)O)C(=O)N[C@@H](C)C(=O)N[C@@H]([C@@H](C)O)C(=O)N1)[C@@H](C)O)C(=O)N[C@@H](CC(C)C)C(=O)N1CCC[C@H]1C(=O)N1CCC[C@H]1C(=O)N[C@H](C(=O)N[C@@H](CC(N)=O)C(=O)N[C@H](C(=O)NCC(=O)N[C@@H](CO)C(=O)N[C@@H](CC(N)=O)C(=O)N[C@H](C(=O)N[C@@H](Cc1ccc(O)cc1)C(N)=O)[C@@H](C)O)C(C)C)[C@@H](C)O
B4: N-epsilon17-[2-(2-{2-[2-(2-{2-[(S)-4-Carboxy-4-(17-carboxyheptadecanoylamino)butyrylamino]ethoxy}ethoxy)acetylamino]ethoxy}ethoxy)acetyl]-[Glu14,Lys17,Ser21,Glu … (peptide)
peptide: KCNTATCATQRLAEFLK([AEEA-AEEA-γGlu-C18 diacid])HSSSNFGPILPPTNVGSETY-NH2
modifications: disulfide 2-7; N-terminus assumed
SMILES: CC[C@H](C)[C@H](NC(=O)[C@@H]1CCCN1C(=O)CNC(=O)[C@H](Cc1ccccc1)NC(=O)[C@H](CC(N)=O)NC(=O)[C@H](CO)NC(=O)[C@H](CO)NC(=O)[C@H](CO)NC(=O)[C@H](Cc1c[nH]cn1)NC(=O)[C@H](CCCCNC(=O)COCCOCCNC(=O)COCCOCCNC(=O)CC[C@H](NC(=O)CCCCCCCCCCCCCCCCC(=O)O)C(=O)O)NC(=O)[C@H](CC(C)C)NC(=O)[C@H](Cc1ccccc1)NC(=O)[C@H](CCC(=O)O)NC(=O)[C@H](C)NC(=O)[C@H](CC(C)C)NC(=O)[C@H](CCCNC(=N)N)NC(=O)[C@H](CCC(N)=O)NC(=O)[C@@H](NC(=O)[C@H](C)NC(=O)[C@@H]1CSSC[C@H](NC(=O)[C@@H](N)CCCCN)C(=O)N[C@@H](CC(N)=O)C(=O)N[C@@H]([C@@H](C)O)C(=O)N[C@@H](C)C(=O)N[C@@H]([C@@H](C)O)C(=O)N1)[C@@H](C)O)C(=O)N[C@@H](CC(C)C)C(=O)N1CCC[C@H]1C(=O)N1CCC[C@H]1C(=O)N[C@H](C(=O)N[C@@H](CC(N)=O)C(=O)N[C@H](C(=O)NCC(=O)N[C@@H](CO)C(=O)N[C@@H](CCC(=O)O)C(=O)N[C@H](C(=O)N[C@@H](Cc1ccc(O)cc1)C(N)=O)[C@@H](C)O)C(C)C)[C@@H](C)O
B5: N-alpha-[(S)-4-Carboxy-4-(19-carboxynonadecanoylamino)butyryl]-Gly-[Glu14,His17,His35]-pramlintide (peptide)
peptide: {C20 diacid-γGlu}-GKCNTATCATQRLAEFLHHSSNNFGPILPPTNVGSHTY-NH2
modifications: disulfide 3-8
SMILES: CC[C@H](C)[C@H](NC(=O)[C@@H]1CCCN1C(=O)CNC(=O)[C@H](Cc1ccccc1)NC(=O)[C@H](CC(N)=O)NC(=O)[C@H](CC(N)=O)NC(=O)[C@H](CO)NC(=O)[C@H](CO)NC(=O)[C@H](Cc1c[nH]cn1)NC(=O)[C@H](Cc1c[nH]cn1)NC(=O)[C@H](CC(C)C)NC(=O)[C@H](Cc1ccccc1)NC(=O)[C@H](CCC(=O)O)NC(=O)[C@H](C)NC(=O)[C@H](CC(C)C)NC(=O)[C@H](CCCNC(=N)N)NC(=O)[C@H](CCC(N)=O)NC(=O)[C@@H](NC(=O)[C@H](C)NC(=O)[C@@H]1CSSC[C@H](NC(=O)[C@H](CCCCN)NC(=O)CNC(=O)CC[C@H](NC(=O)CCCCCCCCCCCCCCCCCCC(=O)O)C(=O)O)C(=O)N[C@@H](CC(N)=O)C(=O)N[C@@H]([C@@H](C)O)C(=O)N[C@@H](C)C(=O)N[C@@H]([C@@H](C)O)C(=O)N1)[C@@H](C)O)C(=O)N[C@@H](CC(C)C)C(=O)N1CCC[C@H]1C(=O)N1CCC[C@H]1C(=O)N[C@H](C(=O)N[C@@H](CC(N)=O)C(=O)N[C@H](C(=O)NCC(=O)N[C@@H](CO)C(=O)N[C@@H](Cc1c[nH]cn1)C(=O)N[C@H](C(=O)N[C@@H](Cc1ccc(O)cc1)C(N)=O)[C@@H](C)O)C(C)C)[C@@H](C)O
B6: N-alpha-[(S)-4-Carboxy-4-(19-carboxynonadecanoylamino)butyryl]-Ser-[Glu14,His17,His35]-pramlintide (peptide)
peptide: {C20 diacid-γGlu}-SKCNTATCATQRLAEFLHHSSNNFGPILPPTNVGSHTY-NH2
modifications: disulfide 3-8
SMILES: CC[C@H](C)[C@H](NC(=O)[C@@H]1CCCN1C(=O)CNC(=O)[C@H](Cc1ccccc1)NC(=O)[C@H](CC(N)=O)NC(=O)[C@H](CC(N)=O)NC(=O)[C@H](CO)NC(=O)[C@H](CO)NC(=O)[C@H](Cc1c[nH]cn1)NC(=O)[C@H](Cc1c[nH]cn1)NC(=O)[C@H](CC(C)C)NC(=O)[C@H](Cc1ccccc1)NC(=O)[C@H](CCC(=O)O)NC(=O)[C@H](C)NC(=O)[C@H](CC(C)C)NC(=O)[C@H](CCCNC(=N)N)NC(=O)[C@H](CCC(N)=O)NC(=O)[C@@H](NC(=O)[C@H](C)NC(=O)[C@@H]1CSSC[C@H](NC(=O)[C@H](CCCCN)NC(=O)[C@H](CO)NC(=O)CC[C@H](NC(=O)CCCCCCCCCCCCCCCCCCC(=O)O)C(=O)O)C(=O)N[C@@H](CC(N)=O)C(=O)N[C@@H]([C@@H](C)O)C(=O)N[C@@H](C)C(=O)N[C@@H]([C@@H](C)O)C(=O)N1)[C@@H](C)O)C(=O)N[C@@H](CC(C)C)C(=O)N1CCC[C@H]1C(=O)N1CCC[C@H]1C(=O)N[C@H](C(=O)N[C@@H](CC(N)=O)C(=O)N[C@H](C(=O)NCC(=O)N[C@@H](CO)C(=O)N[C@@H](Cc1c[nH]cn1)C(=O)N[C@H](C(=O)N[C@@H](Cc1ccc(O)cc1)C(N)=O)[C@@H](C)O)C(C)C)[C@@H](C)O

Molecular target: T1, human amylin 3(a) receptor (human …)
Test: cell-based or functional assay

Amylin receptor human EC50 [nM] | Binder
0.108 | B1
0.0685 | B2
0.456 | B3
1.75 | B4
0.0955 | B5
0.133 | B6

Molecular target: T2, human calcitonin (a) receptor
Test: cell-based or functional assay

CTa receptor human EC50 [nM] | Binder
0.288 | B1
0.0965 | B2
4.3 | B3
8.43 | B4
0.0705 | B5
0.153 | B6
